Laboratory results from patent publication US7285654.

System: T1, GST-IκBβ (1-54)
T1 sequence: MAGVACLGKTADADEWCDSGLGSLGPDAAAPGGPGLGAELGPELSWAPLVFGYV

In the case of “IKK signalsome (stimulus-inducible IκB kinase complex) immunopurified from TNFα-stimulated HeLa cells”, the “phosphorylation of substrate (kinase assay)” value is reported as “the kinase phosphorylated GST-IκBβ (1-54), albeit with lower affinity”.
